Test results from the RNAGym collection of RNA variant scans (doi:10.1093/molbev/msab373).

B1: Azoarcus group I ribozyme (parent)
chain: GUGCCUUGCGCCGGGAAACCACGCAAGGGAUGGUGUCAAAUUCGGCGAAACCUAAGCGCCCGCCCGGGCGUAUGGCAACGCCGAGCCAAGCUUCGGCGCCUGCGCCGAUGAAGGUGUAGAGACUAGACGGCACCCACCUAAGGCAAACGCUAUGGUGAAGGCAUAGUCCAGGGAGUGGCGAAAGUCACACAAACCGG

Variants of: B1
Experiment: reverse-splicing fitness (ratio to wild type); higher = more active; in vitro selection; Mg2+ level not given
Outline: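 An in vitro group I ribozyme library with randomized positions was T7-transcribed and gel-purified. In triplicate, 10 pmol RNA in EPPS pH 7.5 was reacted with 50 pmoles of a 30-nt RNA substrate for 1 h at 37 °C across several added MgCl2 levels (1–48 mM), then stopped with EDTA. Products were reverse transcribed from a substrate-complementary primer, PCR-amplified and sequenced (HiSeq 4000). Fitness is a variant's read proportion after selection over that before, normalised to wild type.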

Q: For GUGCCUUGCGCCGGGAAACCACGCAAGGGAUGGUGUCAAAUUCGGCGAAACCUAAGCGCCCGCCCGGGCGUAUGGCAACGCCGAGCCAAGCUUCGGCGCCUGCGCCGAUGUAGGUGUAGGGACUAGACGGCACCCACCUAAGGCAAACGCUAUGGUGAAGGCAUAGUCGAGGGAGUGGCGAAAGUCACACAAACCGG, which reverse-splicing fitness is on record?
A: 0.218

Q: With GUGCCUUGCGCCGGGAAACCACGCAAGGGAUGGUGUCAAAUUCGGCGAAACCUAAGCGCCCGCCCGGGCGUAUGGCAACGCCGAGCCAAGCUUCGGCGCCUGCGCCGAUGUAGGUGUAGGGACUAGACGGCACCCACCUAAGGCAAACGGUAUGGUGAAGGCAUAGUCCAGGGAGGGGCGAAAGUCACACAAACCGG as the variant, how does the reverse-splicing fitness read?
A: 0.00275

Q: Which reverse-splicing fitness does the source give for GUGCCUUGCGCCGGGAAACCACGCAAGGGAUGGUGUCAAAUUCGGCGAAACCUAAGCGCCCGCCCGGGCGUAUGGCAACGCCGAGCCAAGCUUCGGCGCCUGCGCCGAUGUAGGUGUAGGGACUAGACGGCACCCACCUAAGGCAAACGUUAUGGUGAAGGCAUAGUCCAGGGAGAGGCGAAAGUCACACAAACCGG here?
A: 0.0266

Q: With GUGCCUUGCGCCGGGAAACCACGCAAGGGAUGGUGUCAAAUUCGGCGAAACCUAAGCGCCCGCCCGGGCGUAUGGCAACGCCGAGCCAAGCUUCGGCGCCUGCGCCGAUGUAGGUGUAGGGACUAGACGGCACCCACCUAAGGCAAACGUUAUGGUGAAGGCAUAGUCCAGGGAGGGGCGAAAGUCACACAAACCGG as the variant, how does the reverse-splicing fitness read?
A: 0.00616

Q: Which reverse-splicing fitness does the source give for GUGCCUUGCGCCGGGAAACCACGCAAGGGAUGGUGUCAAAUUCGGCGAAACCUAAGCGCCCGCCCGGGCGUAUGGCAACGCCGAGCCAAGCUUCGGCGCCUGCGCCGAUGUAGGUGUAGGGACUAGACGGCACCCACCUAAGGCAAACGUUAUGGUGAAGGCAUAGUCCAGGGAGCGGCGAAAGUCACACAAACCGG here?
A: 0.0413

Q: For GUGCCUUGCGCCGGGAAACCACGCAAGGGAUGGUGUCAAAUUCGGCGAAACCUAAGCGCCCGCCCGGGCGUAUGGCAACGCCGAGCCAAGCUUCGGCGCCUGCGCCGAUGUAGGUGUAGGGACUAGACGGCACCCACCUAAGGCAAACGCUAUGGUGAAGGCAUAGUCGAGGGAGCGGCGAAAGUCACACAAACCGG, which reverse-splicing fitness is on record?
A: 0.0539

Q: With GUGCCUUGCGCCGGGAAACCACGCAAGGGAUGGUGUCAAAUUCGGCGAAACCUAAGCGCCCGCCCGGGCGUAUGGCAACGCCGAGCCAAGCUUCGGCGCCUGCGCCGAUGUAGGUGUAGGGACUAGACGGCACCCACCUAAGGCAAACGCUAUGGUGAAGGCAUAGUCGAGGGAGGGGCGAAAGUCACACAAACCGG as the variant, how does the reverse-splicing fitness read?
A: 0.00419

Q: Which reverse-splicing fitness does the source give for GUGCCUUGCGCCGGGAAACCACGCAAGGGAUGGUGUCAAAUUCGGCGAAACCUAAGCGCCCGCCCGGGCGUAUGGCAACGCCGAGCCAAGCUUCGGCGCCUGCGCCGAUGUAGGUGUAGGGACUAGACGGCACCCACCUAAGGCAAACGCUAUGGUGAAGGCAUAGUCGAGGGAGAGGCGAAAGUCACACAAACCGG here?
A: 0.0412

Q: For GUGCCUUGCGCCGGGAAACCACGCAAGGGAUGGUGUCAAAUUCGGCGAAACCUAAGCGCCCGCCCGGGCGUAUGGCAACGCCGAGCCAAGCUUCGGCGCCUGCGCCGAUGUAGGUGUAGGGACUAGACGGCACCCACCUAAGGCAAACGCUAUGGUGAAGGCAUAGUCAAGGGAGCGGCGAAAGUCACACAAACCGG, which reverse-splicing fitness is on record?
A: 0.0386

Q: For GUGCCUUGCGCCGGGAAACCACGCAAGGGAUGGUGUCAAAUUCGGCGAAACCUAAGCGCCCGCCCGGGCGUAUGGCAACGCCGAGCCAAGCUUCGGCGCCUGCGCCGAUGUAGGUGUAGGGACUAGACGGCACCCACCUAAGGCAAACGCUAUGGUGAAGGCAUAGUCAAGGGAGGGGCGAAAGUCACACAAACCGG, which reverse-splicing fitness is on record?
A: 0.00454

Q: With GUGCCUUGCGCCGGGAAACCACGCAAGGGAUGGUGUCAAAUUCGGCGAAACCUAAGCGCCCGCCCGGGCGUAUGGCAACGCCGAGCCAAGCUUCGGCGCCUGCGCCGAUGUAGGUGUAGGGACUAGACGGCACCCACCUAAGGCAAACGCUAUGGUGAAGGCAUAGUCAAGGGAGAGGCGAAAGUCACACAAACCGG as the variant, how does the reverse-splicing fitness read?
A: 0.0264

Q: With GUGCCUUGCGCCGGGAAACCACGCAAGGGAUGGUGUCAAAUUCGGCGAAACCUAAGCGCCCGCCCGGGCGUAUGGCAACGCCGAGCCAAGCUUCGGCGCCUGCGCCGAUGUAGGUGUAGGGACUAGACGGCACCCACCUAAGGCAAACGUUAUGGUGAAGGCAUAGUCGAGGGAGGGGCGAAAGUCACACAAACCGG as the variant, how does the reverse-splicing fitness read?
A: 0.00503

Q: For GUGCCUUGCGCCGGGAAACCACGCAAGGGAUGGUGUCAAAUUCGGCGAAACCUAAGCGCCCGCCCGGGCGUAUGGCAACGCCGAGCCAAGCUUCGGCGCCUGCGCCGAUGUAGGUGUAGGGACUAGACGGCACCCACCUAAGGCAAACGUUAUGGUGAAGGCAUAGUCGAGGGAGCGGCGAAAGUCACACAAACCGG, which reverse-splicing fitness is on record?
A: 0.0391

Q: For GUGCCUUGCGCCGGGAAACCACGCAAGGGAUGGUGUCAAAUUCGGCGAAACCUAAGCGCCCGCCCGGGCGUAUGGCAACGCCGAGCCAAGCUUCGGCGCCUGCGCCGAUGUAGGUGUAGGGACUAGACGGCACCCACCUAAGGCAAACGUUAUGGUGAAGGCAUAGUCGAGGGAGAGGCGAAAGUCACACAAACCGG, which reverse-splicing fitness is on record?
A: 0.0314

Q: Which reverse-splicing fitness does the source give for GUGCCUUGCGCCGGGAAACCACGCAAGGGAUGGUGUCAAAUUCGGCGAAACCUAAGCGCCCGCCCGGGCGUAUGGCAACGCCGAGCCAAGCUUCGGCGCCUGCGCCGAUGUAGGUGUAGGGACUAGACGGCACCCACCUAAGGCAAACGUUAUGGUGAAGGCAUAGUCCAGGGAGUGGCGAAAGUCACACAAACCGG here?
A: 0.0899
